Literature values in patent publication US20250341526A1, “NOVEL DYES” (Quantum-Si Incorporated, priority 2024, published 2025).

Test system: amino acid at a terminal position of a polypeptide
Settings: Table 2; amino acid at terminal position (phosphotyrosine also internal); inferred from literature and/or demonstrated by the inventors; cited from earlier work

Molecule | Binding Pref.
PS543: amino acid recognition protein, SEQ ID NO: 172 (protein, listed as Trichinella spiralis) MKCNRQLICGEPTYCCLDCACDQTCIFCHACFQSSEHKNHRYSMSTSEGSGTCDCGDKEAWKSNYYCLNHKP | K, R, H
PS621: amino acid recognition protein, SEQ ID NO: 181 (protein, listed as Kluyveromyces marxianus) MHSKFSHAGRICGAKFKVGEPIYRCKECSFDDTCVLCVNCFNPKDHTGHHVYTTICTEFNNGICDCGDKEAWNHTLFCKAEEG | K, R, H
PS617: amino acid recognition protein, SEQ ID NO: 177 (protein, listed as Eremothecium sinecaudum) MPKEHRGTSCNKHCQPTETVYYCFDCTKNPLYEICEECFDADKHLGHRWTSKVVSRPEGKICHCGDPSGLTDPENGYECKN | K, R, H
PS537: amino acid recognition protein, SEQ ID NO: 165 (protein, listed as Aedes aegypti) MVCGRVFKIGEPTYSCRECSMDPTCVLCSSCFKKSSHRLHKYKMSTSGGGGCCDCGDHEAWKRDPSCEEHAV | K, R, H
PS535: amino acid recognition protein, SEQ ID NO: 163 (protein, listed as Mus musculus) MLCGRVFKVGEPTYSCRDCAVDPTCVLCMECFLGSIHRDHRYRMTTSGGGGFCDCGDTEAWKEGPYCQKHKL | K, R, H
PS620: amino acid recognition protein, SEQ ID NO: 180 (protein, listed as Saccharomyces cerevisiae) MGNMHIGTACTRLCFPSETIYYCFTCSTNPLYEICELCFDKEKHVNHSYVAKVVMRPEGRICHCGDPFAFNDPSDAFKCKN | K, R, H
Homo sapiens UBR2: amino acid recognition protein, SEQ ID NO: 174 (protein, listed as Homo sapiens) MGPLGSLCGRVFKVGEPTYSCRDCAVDPTCVLCMECFLGSIHRDHRYRMTTSGGGGFCDCGDTEAWKEGPYCQKHE | K, R, H
PS536: amino acid recognition protein, SEQ ID NO: 164 (protein, listed as Aphis gossypii) MVCGRVFKMGEPTYNCRECGMDSTCVLCVDCFKRSPHKNHKYKMGTSYGGGCCDCGDVEAWKHDPYCQTHKL | K, R, H
PS619: amino acid recognition protein, SEQ ID NO: 179 (protein, listed as Vanderwaltozyma polyspora) MENLHIGSCCNRQCYPTQTVYYCLTCTINPLYEICELCFDEDKHVGHTYISKSVIRPEGKVCHCGNPNVFKKPEFAFNCKN | K, R, H
PS544: amino acid recognition protein, SEQ ID NO: 173 (protein, listed as Homo sapiens) MGPLGSLCGRVFKSGETTYSCRDCAIDPTCVLCMDCFQDSVHKNHRYKMHTSTGGGFCDCGDTEAWKTGPFCVNHEP | K, R, H
PS618: amino acid recognition protein, SEQ ID NO: 178 (protein, listed as Zygosaccharomyces bailii) MNASHKGAMCSKQCYPTETVFYCFTCTTNPLYEICESCFDEEKHRGHLYTAKVVVRPEGRVCHCGDPFVFKEPRFAFLCKN | K, R, H
PS623: amino acid recognition protein, SEQ ID NO: 183 (protein, listed as Kazachstania naganishii) MSKQFRHKGRNCGRKFRLGEPLYRCQECGYDDTCVLCINCFNPKDHEGHHIYTDICNDFTSGICDCGDEEAWLSPLHCKAEED | K, R, H
PS542: amino acid recognition protein, SEQ ID NO: 171 (protein, listed as Trichuris suis) MRCNHVFANGEATYSCRGCAADPTCVLCASCFELSAHKEHKYMITTSSGTGYCDCGDPEAWKADPFCQQHQP | K, R, H
PS540: amino acid recognition protein, SEQ ID NO: 169 (protein, listed as Clathrospora elynae) MPCGHIFKNGEATYRCKTCTADDTCVLCARCFDASDHEGHQVFVSVSPGNSGCCDCGDDEAWVRPVHCNMHSA | K, R, H
PS622: amino acid recognition protein, SEQ ID NO: 182 (protein, listed as Kluyveromyces dobzhanskii) MHSRFNHAGRICASKFKVGEPIYRCKECSFDDTCVICVNCFNPKDHVGHHVYTSICSEFNNGICDCGDTEAWNHDMHCKADEN | K, R, H
PS538: amino acid recognition protein, SEQ ID NO: 166 (protein, listed as Saccharomyces cerevisiae) MGDVHKHTGRNCGRKFKIGEPLYRCHECGCDDTCVLCIHCFNPKDHVNHHVCTDICTEFTSGICDCGDEEAWNSPLHCKAEEQ | K, R, H
PS25: amino acid recognition protein, SEQ ID NO: 167 (protein, listed as Saccharomyces cerevisiae) MGSVHKHTGRNCGRKFKIGEPLYRCHECGCDDTCVLCIHCFNPKDHVNHHVCTDICTEFTSGICDCGDEEAWNSPLHCKAEEQ | K, R, H
PS615: amino acid recognition protein, SEQ ID NO: 175 (protein, listed as Kluyveromyces marxianus) MVNEHRGSQCSKQCHGTETVYYCFDCTKNPLYEICEECFDETQHMGHRYTSRVVTRPEGKVCHCGDISGYNNPEKAFQCKI | K, R, H
PS616: amino acid recognition protein, SEQ ID NO: 176 (protein, listed as Kluyveromyces lactis) MHNDHRGSQCSKQCHGTETVYYCFDCTKNPLYEICEDCFDESQHIGHRYTSRVVTRPEGKVCHCGDISSYNDPKKAFQCRI | K, R, H
PS541: amino acid recognition protein, SEQ ID NO: 170 (protein, Aspergillus neoniger) MRCGHIFRAGEATYRCITCAADDTCVLCSRCFDASDHTGHQYQISLSSGNCGCCDCGDEEAWRLPLFCAIHTD | K, R, H
PS539: amino acid recognition protein, SEQ ID NO: 168 (protein, listed as Kazachstania africana) MQTSFTHKGRNCGRKFKVGEPLYRCHECGFDDTCVLCIHCFNPADHENHHIYTDICNDFTSGICDCGDTEAWNGDLHCKAEEI | K, R, H
PS534: amino acid recognition protein, SEQ ID NO: 162 (protein, Schizosaccharomyces pombe) MKCGHIFRKGEVFYRCKTCSVDSNSALCVKCFRATSHKDHETSFTVSAGSGGCCDCGNAAAWIGDVSCKIHSH | K, R, H
